Reference: paper PMC5734611 (Nature nanotechnology, 2016)

Biological target: the molecule itself
Assay: high-speed atomic force microscopy

B1: bacterial glycerol uptake facilitator GlpF (natural protein)
chain: MSQTSTLKGQSIAEFLGTGLLIFFGVGSVAALKVAGASFGQWEISVIWGLGVAMAIYLTAGVSGAHLNPAVTIALWLFASFDKRKVIPFIVSQVAGAFSAAALVYGLYYNLFFDFEQTHHIVRGSVESVDLAGTFSTYPNPHINFVQAFAVEMVITAILMGLILALTDDGNGVPRGPLAPLLIGLLIAVIGASMGPLTGFAMNPARDFGPKVFAWLAGWGNVAFTGGRDIPYFLVPLFGPIVGAIVGAFAYRKLIGRHLPCDICVVEEKETTTPSEQKASL
modifications: Atto 488 maleimide on cysteines (C261 and C264)
B1 was tested, and the “stoichiometry N” value was 4.
